Source: patent publication US20170081400A1 (CEPHALON, published 2017)

T1: human TL1A extracellular domain with N-terminal HIS and FLAG tag (human, UniProt O95150 72-251)
T1 construct: the whole entry is named; also called TNFSF15
T1 sequence: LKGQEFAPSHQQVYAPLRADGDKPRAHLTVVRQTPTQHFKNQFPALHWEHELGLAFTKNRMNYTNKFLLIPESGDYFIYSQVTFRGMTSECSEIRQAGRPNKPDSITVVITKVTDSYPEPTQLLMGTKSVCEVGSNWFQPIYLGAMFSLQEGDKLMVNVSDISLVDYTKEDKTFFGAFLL


Legend:
[1] = molecular target: T1, human TL1A extracellular domain with …; experiment: SPR Run 7, antibody on Protein A, TL1A 5 ug/mL, timepoint 44
Source text: (§1) 1.5. Antibody expression and antigen binding as determined by SPR. Using a CM5 sensor chip (GE Healthcare) Protein A (Pierce) was coupled to the chip surface using an amine coupling kit (GE Healthcare). Protein A was coupled on flow cell 1 and 2 (or alternatively 3 and 4) using a BIACORE® T200. […] The amount of supernatant or purified protein (as well as the concentration) injected during the capture stage varied between runs and is specified in the header of the Tables 3-11. At the end of injection of the supernatant or purified antibody the change in response units was measured. This value was reported as Capture Level in Tables 3-11. […] The response units were measured prior to the end of the dissociation phase. […] The sensorgrams were double referenced (flow cell 2 is subtracted from flow cell 1 and a buffer blank). As there were a large number of antibody variants to screen, these were screened across different runs (Tables 3-11). […] A summary of the conditions used in each run is below:
(§2) 2.1. […] In some experiment the antibodies were purified using Protein A chromatography (See 1.4) and purified antibodies were used in BIACORE® (GE Healthcare) experiments.

[2] = molecular target: T1, human TL1A extracellular domain with …; experiment: SPR Run 7, antibody on Protein A, TL1A 5 ug/mL, timepoint 220
Source text: as §1, §2

| Binder | TL1A Binding Level (Early) [1] [RU] | TL1A Binding Level (Late) [2] [RU] |
| --- | --- | --- |
| 320-566 (antibody, human IgG1, name in Kabat numbering, V domains shown, full-length human IgG1, lambda) VH: QVQLVQSGAEVKKPGASVKVSCKASGYTFTSYDINWVRQAPGQGLEWMGWLNPNSGNTGAAQKFQGRVTMTADRSTSTAYMELSSLRSEDTAVYYCAREVPETAAFEYWGQGTLVTVSS VL: QSVLTQPPSVSGAPGQRVTISCTSSSSDIGAGLGVHWYQQLPGTAPKLLIEGYYNRPSGVPDRFSGSKSGTSASLTITGLLPEDEGDYYCQSYDGTLSALFGGGTKLTVLG | 120 | 110 |
| 320-569 (antibody, human IgG1, name in Kabat numbering, V domains shown, full-length human IgG1, lambda) VH: QVQLVQSGAEVKKPGASVKVSCKASGYTFTSYDINWVRQAPGQGLEWMGWLNPNSGNTGDAQKFQGRVTMTADRSTSTAYMELSSLRSEDTAVYYCAREVPETAAFEYWGQGTLVTVSS VL: QSVLTQPPSVSGAPGQRVTISCTSSSSDIGAGLGVHWYQQLPGTAPKLLIEGYYNRPSGVPDRFSGSKSGTSASLTITGLLPEDEGDYYCQSYDGTLSALFGGGTKLTVLG | 79 | 73 |
| 320-567 (antibody, human IgG1, name in Kabat numbering, V domains shown, full-length human IgG1, lambda) VH: QVQLVQSGAEVKKPGASVKVSCKASGYTFTSYDINWVRQAPGQGLEWMGWLNPNSGNTGSAQKFQGRVTMTADRSTSTAYMELSSLRSEDTAVYYCAREVPETAAFEYWGQGTLVTVSS VL: QSVLTQPPSVSGAPGQRVTISCTSSSSDIGAGLGVHWYQQLPGTAPKLLIEGYYNRPSGVPDRFSGSKSGTSASLTITGLLPEDEGDYYCQSYDGTLSALFGGGTKLTVLG | 96 | 86 |
| 320-572 (antibody, human IgG1, name in Kabat numbering, V domains shown, full-length human IgG1, lambda) VH: QVQLVQSGAEVKKPGASVKVSCKASGYTFTSYDINWVRQAPGQGLEWMGWLNPNSGNTGYSQKFQGRVTMTADRSTSTAYMELSSLRSEDTAVYYCAREVPETAAFEYWGQGTLVTVSS VL: QSVLTQPPSVSGAPGQRVTISCTSSSSDIGAGLGVHWYQQLPGTAPKLLIEGYYNRPSGVPDRFSGSKSGTSASLTITGLLPEDEGDYYCQSYDGTLSALFGGGTKLTVLG | 98 | 90 |
| 320-571 (antibody, human IgG1, name in Kabat numbering, V domains shown, full-length human IgG1, lambda) VH: QVQLVQSGAEVKKPGASVKVSCKASGYTFTSYDINWVRQAPGQGLEWMGWLNPNSGNTGKAQKFQGRVTMTADRSTSTAYMELSSLRSEDTAVYYCAREVPETAAFEYWGQGTLVTVSS VL: QSVLTQPPSVSGAPGQRVTISCTSSSSDIGAGLGVHWYQQLPGTAPKLLIEGYYNRPSGVPDRFSGSKSGTSASLTITGLLPEDEGDYYCQSYDGTLSALFGGGTKLTVLG | 78 | 72 |
| 320-577 (antibody, human IgG1, name in Kabat numbering, V domains shown, full-length human IgG1, lambda) VH: QVQLVQSGAEVKKPGASVKVSCKASGYTFTSYDINWVRQAPGQGLEWMGWANPNSGNTGYAQKFQGRVTMTADRSTSTAYMELSSLRSEDTAVYYCAREVPETAAFEYWGQGTLVTVSS VL: QSVLTQPPSVSGAPGQRVTISCTSSSSDIGAGLGVHWYQQLPGTAPKLLIEGYYNRPSGVPDRFSGSKSGTSASLTITGLLPEDEGDYYCQSYDGTLSALFGGGTKLTVLG | 98 | 90 |
| 320-576 (antibody, human IgG1, name in Kabat numbering, V domains shown, full-length human IgG1, lambda) VH: QVQLVQSGAEVKKPGASVKVSCKASGYTFTSYDINWVRQAPGQGLEWMGWLNPNSGNTGYKQKFQGRVTMTADRSTSTAYMELSSLRSEDTAVYYCAREVPETAAFEYWGQGTLVTVSS VL: QSVLTQPPSVSGAPGQRVTISCTSSSSDIGAGLGVHWYQQLPGTAPKLLIEGYYNRPSGVPDRFSGSKSGTSASLTITGLLPEDEGDYYCQSYDGTLSALFGGGTKLTVLG | 90 | 83 |
| 320-573 (antibody, human IgG1, name in Kabat numbering, V domains shown, full-length human IgG1, lambda) VH: QVQLVQSGAEVKKPGASVKVSCKASGYTFTSYDINWVRQAPGQGLEWMGWLNPNSGNTGYQQKFQGRVTMTADRSTSTAYMELSSLRSEDTAVYYCAREVPETAAFEYWGQGTLVTVSS VL: QSVLTQPPSVSGAPGQRVTISCTSSSSDIGAGLGVHWYQQLPGTAPKLLIEGYYNRPSGVPDRFSGSKSGTSASLTITGLLPEDEGDYYCQSYDGTLSALFGGGTKLTVLG | 67 | 62 |
| 320-574 (antibody, human IgG1, name in Kabat numbering, V domains shown, full-length human IgG1, lambda) VH: QVQLVQSGAEVKKPGASVKVSCKASGYTFTSYDINWVRQAPGQGLEWMGWLNPNSGNTGYDQKFQGRVTMTADRSTSTAYMELSSLRSEDTAVYYCAREVPETAAFEYWGQGTLVTVSS VL: QSVLTQPPSVSGAPGQRVTISCTSSSSDIGAGLGVHWYQQLPGTAPKLLIEGYYNRPSGVPDRFSGSKSGTSASLTITGLLPEDEGDYYCQSYDGTLSALFGGGTKLTVLG | 140 | 130 |
| 320-570 (antibody, human IgG1, name in Kabat numbering, V domains shown, full-length human IgG1, lambda) VH: QVQLVQSGAEVKKPGASVKVSCKASGYTFTSYDINWVRQAPGQGLEWMGWLNPNSGNTGHAQKFQGRVTMTADRSTSTAYMELSSLRSEDTAVYYCAREVPETAAFEYWGQGTLVTVSS VL: QSVLTQPPSVSGAPGQRVTISCTSSSSDIGAGLGVHWYQQLPGTAPKLLIEGYYNRPSGVPDRFSGSKSGTSASLTITGLLPEDEGDYYCQSYDGTLSALFGGGTKLTVLG | 79 | 72 |
| 320-568 (antibody, human IgG1, name in Kabat numbering, V domains shown, full-length human IgG1, lambda) VH: QVQLVQSGAEVKKPGASVKVSCKASGYTFTSYDINWVRQAPGQGLEWMGWLNPNSGNTGQAQKFQGRVTMTADRSTSTAYMELSSLRSEDTAVYYCAREVPETAAFEYWGQGTLVTVSS VL: QSVLTQPPSVSGAPGQRVTISCTSSSSDIGAGLGVHWYQQLPGTAPKLLIEGYYNRPSGVPDRFSGSKSGTSASLTITGLLPEDEGDYYCQSYDGTLSALFGGGTKLTVLG | 115 | 107 |
| 320-578 (antibody, human IgG1, name in Kabat numbering, V domains shown, full-length human IgG1, lambda) VH: QVQLVQSGAEVKKPGASVKVSCKASGYTFTSYDINWVRQAPGQGLEWMGWYNPNSGNTGYAQKFQGRVTMTADRSTSTAYMELSSLRSEDTAVYYCAREVPETAAFEYWGQGTLVTVSS VL: QSVLTQPPSVSGAPGQRVTISCTSSSSDIGAGLGVHWYQQLPGTAPKLLIEGYYNRPSGVPDRFSGSKSGTSASLTITGLLPEDEGDYYCQSYDGTLSALFGGGTKLTVLG | 83 | 77 |
| 320-579 (antibody, human IgG1, name in Kabat numbering, V domains shown, full-length human IgG1, lambda) VH: QVQLVQSGAEVKKPGASVKVSCKASGYTFTSYDINWVRQAPGQGLEWMGWLLPNSGNTGYAQKFQGRVTMTADRSTSTAYMELSSLRSEDTAVYYCAREVPETAAFEYWGQGTLVTVSS VL: QSVLTQPPSVSGAPGQRVTISCTSSSSDIGAGLGVHWYQQLPGTAPKLLIEGYYNRPSGVPDRFSGSKSGTSASLTITGLLPEDEGDYYCQSYDGTLSALFGGGTKLTVLG | 46 | 41 |
| 320-575 (antibody, human IgG1, name in Kabat numbering, V domains shown, full-length human IgG1, lambda) VH: QVQLVQSGAEVKKPGASVKVSCKASGYTFTSYDINWVRQAPGQGLEWMGWLNPNSGNTGYHQKFQGRVTMTADRSTSTAYMELSSLRSEDTAVYYCAREVPETAAFEYWGQGTLVTVSS VL: QSVLTQPPSVSGAPGQRVTISCTSSSSDIGAGLGVHWYQQLPGTAPKLLIEGYYNRPSGVPDRFSGSKSGTSASLTITGLLPEDEGDYYCQSYDGTLSALFGGGTKLTVLG | 121 | 110 |
